Source: publication PMC3953333, “Sterol Regulatory Element-Binding Proteins Are Regulators of the Rat Thyroid Peroxidase Gene in Thyroid Cells”

Key:
[1] = target: T1, nuclear SREBP-1c (nSREBP-1c) (rat, UniProt P56720-1 1-456); assay: EMSA; EMSA with DIG-labeled annealed oligonucleotides (Roche DIG Gel Shift Kit, 2nd Generation) and TNT T7 in vitro-translated proteins; buffer, salt, pH and temperature not stated (ref 19); conditions: protein: ivt, chain copies: 2, label: DIG end-label
T1 sequence: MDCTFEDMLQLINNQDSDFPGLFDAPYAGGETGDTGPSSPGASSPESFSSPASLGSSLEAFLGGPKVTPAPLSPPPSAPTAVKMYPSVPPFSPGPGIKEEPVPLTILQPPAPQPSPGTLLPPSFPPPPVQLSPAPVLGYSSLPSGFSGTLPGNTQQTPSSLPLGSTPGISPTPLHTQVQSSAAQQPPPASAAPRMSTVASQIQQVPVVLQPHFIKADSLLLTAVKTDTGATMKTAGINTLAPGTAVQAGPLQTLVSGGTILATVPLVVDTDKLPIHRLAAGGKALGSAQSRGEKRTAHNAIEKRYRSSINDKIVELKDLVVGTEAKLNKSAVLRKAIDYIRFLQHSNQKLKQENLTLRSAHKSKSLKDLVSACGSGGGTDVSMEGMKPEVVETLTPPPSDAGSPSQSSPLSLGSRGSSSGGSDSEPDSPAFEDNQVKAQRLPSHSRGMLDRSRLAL

[2] = target: T2, nuclear SREBP-2 (nSREBP-2) (rat, UniProt Q3T1I5 1-476); assay: as above; conditions: protein: ivt, chain copies: 2, label: DIG end-label
T2 sequence: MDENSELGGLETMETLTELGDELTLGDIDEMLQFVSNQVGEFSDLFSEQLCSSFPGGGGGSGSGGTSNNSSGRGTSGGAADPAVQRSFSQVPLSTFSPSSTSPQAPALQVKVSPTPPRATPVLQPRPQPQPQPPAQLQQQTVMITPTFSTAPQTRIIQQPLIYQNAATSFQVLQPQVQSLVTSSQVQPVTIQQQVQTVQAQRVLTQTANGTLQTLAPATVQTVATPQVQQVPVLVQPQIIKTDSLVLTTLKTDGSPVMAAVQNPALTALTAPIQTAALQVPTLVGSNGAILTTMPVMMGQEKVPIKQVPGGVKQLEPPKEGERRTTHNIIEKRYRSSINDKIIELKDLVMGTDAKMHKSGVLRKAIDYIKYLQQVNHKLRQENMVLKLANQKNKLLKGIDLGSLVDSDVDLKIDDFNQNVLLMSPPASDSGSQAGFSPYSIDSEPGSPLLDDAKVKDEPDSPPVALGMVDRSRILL

[3] = 5' overhangs 4 nt (AGCT / TCGA)
[4] = 5' overhangs 4 nt (GATC / TCGA)

B1: rTPO VI mut5 (dsDNA)
DNA 1: AGCTCAGGCGGAAACTCAGGTGGGTCCTCCCAAGT
DNA 2: TCGAACTTGGGAGGACCCACCTGAGTTTCCGCCTG
- binding result [1, 3]: binds
- binding result [2, 3]: binds

B2: rTPO VI (dsDNA)
DNA 1: AGCTCAGGCCTCTCCTCAGGTGGGTCCTCCCAAGT
DNA 2: TCGAACTTGGGAGGACCCACCTGAGGAGAGGCCTG
- binding result [1, 3]: binds
- binding result [2, 3]: binds

B3: rTPO VI mut3 (dsDNA)
DNA 1: AGCTCAGGCCTCTCCTCAGACTAATCCTCCCAAGT
DNA 2: TCGAACTTGGGAGGATTAGTCTGAGGAGAGGCCTG
- binding result [1, 3]: binds
- binding result [2, 3]: binds

B4: rTPO VI mut4 (dsDNA)
DNA 1: AGCTCAGGCCTCTCAGATAGTGGGTCCTCCCAAGT
DNA 2: TCGAACTTGGGAGGACCCACTATCTGAGAGGCCTG
- binding result [1, 3]: no binding
- binding result [2, 3]: no binding

B5: rTPO VI mut2 (dsDNA)
DNA 1: AGCTCAGGCCTCTCCTCAGGTGGGGTTGACCAAGT
DNA 2: TCGAACTTGGTCAACCCCACCTGAGGAGAGGCCTG
- binding result [1, 3]: binds
- binding result [2, 3]: binds

B6: rTPO IV (dsDNA)
DNA 1: AGCTATACTGTGGGATGTACCATA
DNA 2: TCGATATGGTACATCCCACAGTAT
- binding result [1, 3]: binds
- binding result [2, 3]: no binding

B7: rTPO III mut3 (dsDNA)
DNA 1: AGCTGATAATCAGATTCGAAGCAGAATACT
DNA 2: TCGAAGTATTCTGCTTCGAATCTGATTATC
- binding result [1, 3]: no binding
- binding result [2, 3]: no binding

B8: rTPO III mut2 (dsDNA)
DNA 1: AGCTGATAATCAGAAAGTCGTATTAATACT
DNA 2: TCGAAGTATTAATACGACTTTCTGATTATC
- binding result [1, 3]: no binding
- binding result [2, 3]: no binding

B9: rTPO VI mut6 (dsDNA)
DNA 1: AGCTTGTAACTCTCCTCAGGTGGGTCCTCCCAAGT
DNA 2: TCGAACTTGGGAGGACCCACCTGAGGAGAGTTACA
- binding result [1, 3]: binds
- binding result [2, 3]: binds

B10: rTPO V (dsDNA)
DNA 1: AGCTGTGGGATGTACCATAAATACCCAGG
DNA 2: TCGACCTGGGTATTTATGGTACATCCCAC
- binding result [1, 3]: no binding
- binding result [2, 3]: no binding

B11: rTPO III (dsDNA)
DNA 1: AGCTGATAATCAGAAAGTCAGCAGAATACT
DNA 2: TCGAAGTATTCTGCTGACTTTCTGATTATC
- binding result [1, 3]: binds
- binding result [2, 3]: binds

B12: rTPO IVmut (dsDNA)
DNA 1: AGCTATACTGTGTTACTTACCATA
DNA 2: TCGATATGGTAAGTAACACAGTAT
- binding result [1, 3]: no binding

B13: rTPO III mut1 (dsDNA)
DNA 1: AGCTGATAATCAGAAAGTCAGCAGTTCTAG
DNA 2: TCGACTAGAACTGCTGACTTTCTGATTATC
- binding result [1, 3]: binds
- binding result [2, 3]: binds

B14: rTPO III mut4 (dsDNA)
DNA 1: AGCTGATAAGATTCAAGTCAGCAGAATACT
DNA 2: TCGAAGTATTCTGCTGACTTGAATCTTATC
- binding result [1, 3]: binds
- binding result [2, 3]: binds

B15: rTPO I (dsDNA)
DNA 1: GATCTCTGGGGTTGCAGTGGGGAAGA
DNA 2: TCGATCTTCCCCACTGCAACCCCAGA
- binding result [1, 4]: no binding
- binding result [2, 4]: no binding

B16: rTPO VI mut1 (dsDNA)
DNA 1: AGCTCAGGCCTCTCCTCAGGTGGGTCCTCATGGCT
DNA 2: TCGAAGCCATGAGGACCCACCTGAGGAGAGGCCTG
- binding result [1, 3]: binds
- binding result [2, 3]: binds

B17: rTPO II (dsDNA)
DNA 1: AGCTTTGCAGTGGGGAAGAGATAA
DNA 2: TCGATTATCTCTTCCCCACTGCAA
- binding result [1, 3]: no binding
- binding result [2, 3]: no binding

B18: rTPO III mut5 (dsDNA)
DNA 1: AGCTTCGTTTCAGAAAGTCAGCAGAATACT
DNA 2: TCGAAGTATTCTGCTGACTTTCTGAAACGA
- binding result [1, 3]: binds
- binding result [2, 3]: binds
